In series [1] the target is T1, TIA-1 RRM23 (UniProt P31483 104-288).
T1 sequence: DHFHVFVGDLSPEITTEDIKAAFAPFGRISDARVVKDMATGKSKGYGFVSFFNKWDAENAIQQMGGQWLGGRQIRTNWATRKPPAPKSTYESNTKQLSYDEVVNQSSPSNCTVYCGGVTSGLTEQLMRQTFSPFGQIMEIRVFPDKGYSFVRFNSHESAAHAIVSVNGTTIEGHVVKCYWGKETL
Kind of series: fluorescence anisotropy. For orientation: In fluorescence polarisation assays a small probe gives low polarisation when free and higher when bound to something large.

Series [2] has as its target T2, SXL RRM12 (UniProt P19339 122-294).
T2 sequence: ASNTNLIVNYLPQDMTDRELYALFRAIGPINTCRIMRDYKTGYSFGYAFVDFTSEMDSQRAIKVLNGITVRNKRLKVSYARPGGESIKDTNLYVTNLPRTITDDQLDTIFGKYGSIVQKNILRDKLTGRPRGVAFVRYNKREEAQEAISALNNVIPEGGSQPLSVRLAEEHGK
Description: fluorescence anisotropy.

In the case of UUUUUUUUUUUUUUUUUUUU (ssRNA) [U20], the values for the dissociation constant Kd in series [1] and in series [2] were 33 ± 6 nM and 7 ± 3 nM, respectively.

By Kd is commonly meant a measure of binding affinity in units of concentration. A low value points to a tighter complex.

These data come from article PMC3050080.
